From FireProtDB (doi:10.1021/bi00150a028)

B1: Lysozyme C, P61626 (parent)
chain: MKALIVLGLVLLSVTVQGKVFERCELARTLKRLGMDGYRGISLANWMCLAKWESGYNTRATNYNAGDRSTDYGIFQINSRYWCNDGKTPGAVNACHLSCSALLQDNIADAVACAKRVVRDPQGIRAWVAWRNRCQNRDVRQYVQGCGV

Variants of: B1
Conditions: Homo sapiens, pH 3, Thermal, DSC, glycine-HCl 0.05 M, reversible: yes, structure 1LZ1, whole UniProt chain shown; for ddG of mutation (higher = less stable) / unfolding enthalpy (calorimetric) / unfolding free energy: 57 °C

| Variant | ddG of mutation (higher = less stable) [kJ/mol] | unfolding enthalpy (calorimetric) [kJ/mol] | unfolding free energy [kJ/mol] | Tm [°C] | change of melting temperature, mutant - wild type (higher = more stable) [°C] |
| --- | --- | --- | --- | --- | --- |
| C95A C113A | 19.2 | 380 | 0 | 56.9 | -14.5 |
| C95A | 19.2 | 397 | 0 | – | – |
